# Data: IntAct's records for PubMed 33990585
# B1: Mitochondrial import receptor subunit TOM70 (Homo sapiens), O94826 (parent)
# chain: MAASKPVEAAVVAAAVPSSGSGVGGGGTAGPGTGGLPRWQLALAVGAPLLLGAGAIYLWSRQQRRREARGRGDASGLKRNSERKTPEGRASPAPGSGHPEGPGAHLDMNSLDRAQAAKNKGNKYFKAGKYEQAIQCYTEAISLCPTEKNVDLSTFYQNRAAAFEQLQKWKEVAQDCTKAVELNPKYVKALFRRAKAHEKLDNKKECLEDVTAVCILEGFQNQQSMLLADKVLKLLGKEKAKEKYKNREPLMPSPQFIKSYFSSFTDDIISQPMLKGEKSDEDKDKEGEALEVKENSGYLKAKQYMEEENYDKIISECSKEIDAEGKYMAEALLLRATFYLLIGNANAAKPDLDKVISLKEANVKLRANALIKRGSMYMQQQQPLLSTQDFNMAADIDPQNADVYHHRGQLKILLDQVEEAVADFDECIRLRPESALAQAQKCFALYRQAYTGNNSSQIQAAMKGFEEVIKKFPRCAEGYALYAQALTDQQQFGKADEMYDKCIDLEPDNATTYVHKGLLQLQWKQDLDRGLELISKAIEIDNKCDFAYETMGTIEVQRGNMEKAIDMFNKAINLAKSEMEMAHLYSLCDAAHAQTEVAKKYGLKPPTL
# Variants of: B1
# Settings: with orf9b_sars2 orf9b
row,Variant,effect of a mutation on the interaction
1,H583Q,with no effect
2,E477A,decreasing interaction strength
3,D545A,decreasing interaction strength
4,E549A,decreasing interaction strength
5,E549I,decreasing interaction strength
